Assay results: paper doi:10.1101/218669

Biological target: Pragmin 906-1368 (Pragmin C) (Rattus norvegicus) (UniProt D3ZMK9)
Test: MALLS + DLS + SAXS

Substance “Pragmin 906-1368 (Pragmin C) (from UniProt D3ZMK9 906-1368) (domain or fragment)” has a stoichiometry N of 2.
